Results from paper PMC6121587, “In Vitro Inhibitory Mechanism Effect of TRAIP on the Function of TRAF2 Revealed by Characterization of Interaction Domains” (International Journal of Molecular Sciences, 2018).
Values joined by “and” are separate entries in the source; they are usually repeats but may differ in a detail not shown here. Equal entries are not always repeated.

B3: TRAIP RING domain plus coiled-coil domain (TRAIP RING-CC, residues 1-157) (domain or fragment, human, UniProt Q9BWF2 1-157, looked up)
chain: MPIRALCTICSDFFDHSRDVAAIHCGHTFHLQCLIQWFETAPSRTCPQCRIQVGKRTIINKLFFDLAQEEENVLDAEFLKNELDNVRAQLSQKDKEKRDSQVIIDTLRDTLEERNATVVSLQQALGKAEMLCSTLKKQMKYLEQQQDETKQAQEEAR
notes: Exists in different forms and higher-order oligomers; calculated monomer mass with the tag 18,893 Da; not shown: His6, C-terminal, kept

How the values were obtained:
[1] = molecular target: TRAF2 TRAF domain (TRAF-N and TRAF-C) (human); experiment: SEC; single purified protein on Superdex 200 10/30, 20 mM Tris-HCl pH 8.0, 150 mM NaCl
[2] = molecular target: TRAF4 TRAF domain (TRAF-N and TRAF-C) (human); experiment: as above
[3] = molecular target: the molecule itself; experiment: AUC; sedimentation velocity, 20 °C, 2 mg/mL, 20 mM Tris-HCl pH 8.0, 150 mM NaCl, 45,000 rpm, 280 nm, SEDFIT c(s); the paper calls the TRAIP CC concentration low
[4] = molecular target: the molecule itself; experiment: SEC + SEC-MALS; TRAIP CC alone, high concentration; Superdex 200 10/30; MALS on mini-DAWN treos
[5] = molecular target: B3; experiment: native gel or EMSA; Native PAGE shift assay of mixtures of two purified proteins, Phast System, 8-25% gradient gel, Coomassie; conditions: both partners purified
[6] = molecular target: the molecule itself; experiment: SEC; single purified protein on Superdex 200 10/30, 20 mM Tris-HCl pH 8.0, 150 mM NaCl

Question: With “TRAF2 TRAF domain (TRAF-N and TRAF-C) (domain or fragment)” as the molecule, how does the stoichiometry N [1] read?
Answer: 3

Question: How did the stoichiometry N [2] turn out when “TRAF4 TRAF domain (TRAF-N and TRAF-C) (domain or fragment)” was run?
Answer: 3

B1: TRAIP coiled-coil domain (TRAIP CC, residues 72-167) (domain or fragment, human, UniProt Q9BWF2 72-167, looked up)
chain: NVLDAEFLKNELDNVRAQLSQKDKEKRDSQVIIDTLRDTLEERNATVVSLQQALGKAEMLCSTLKKQMKYLEQQQDETKQAQEEARRLRSKMKTME
notes: Trimer by SEC and MALS at high concentration, dimer by AUC at low concentration; calculated monomer mass with the tag 12,425 Da; not shown: His6, C-terminal, kept
Question: Which “stoichiometry N” value [3] does the source give for B1 here?
Answer: 2

Question: And the “stoichiometry N” value [4]?
Answer: 3

B2: TRAF2 TRAF-N coiled-coil domain (amino acids 264-329) (domain or fragment, human, UniProt Q12933 264-329, looked up)
chain: AGSELLQRCESLEKKTATFENIVCVLNREVERVAMTAEACSRQHRLDQDKIEALSSKVQQLERSIG
notes: TNF receptor-associated factor 2 (TRAF2), human, TRAF-N coiled-coil domain, amino acids 264-329; Trimer by SEC; dimer and possible trimer by AUC. 'Human' is said of the TRAF2 TRAF domain in the same methods paragraph, not of this construct itself; also called TRAF2 TRAF-N CC; TRAF2 CC
Question: Does B2 bind [5]?
Answer: binds

Question: What about the “stoichiometry N” value [3] of the same molecule?
Answer: 2 and 3

Question: Does B3 bind [6]?
Answer: binds

B4: TRAF1 TRAF-N coiled-coil domain (amino acids 181-244) (domain or fragment, UniProt Q13077 181-244, looked up)
chain: FMKEKLLAELEGKLRVFENIVAVLNKEVEASHLALATSIHQSQLDRERILSLEQRVVELQQTLA
notes: TNF receptor-associated factor 1 (TRAF1), TRAF-N coiled-coil domain, amino acids 181-244; also called TRAF1 TRAF-N CC
Question: With B4 as the molecule, how does the “stoichiometry N” value [6] read?
Answer: 3
